Laboratory results reported in the supplement of paper PMC9170038.

System: MS2 coat protein
Assay: apparent KD of MS2 coat protein; designed switch direction (-1 OFF switch, 1 ON switch): -1; higher = weaker reporter binding
In short: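 For each design, the apparent KD is the median over clusters of curves fitted to normalised cluster fluorescence. Clusters held RNA switches with common flanks, transcribed on Illumina chips by stalled E. coli RNA polymerase. These were titrated with SNAP-549-labelled MS2 coat protein, doubling from 0.7 or 1.5 nM to 3 µM, without input, with 200 uM small-molecule ligand, or with an oligonucleotide input.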

[1] = Eterna round: R95, input ligand: FMN 200 uM
[2] = Eterna round: R95, input ligand: microRNA oligo, concentration not stated
[3] = Eterna round: R95, input ligand: none
[4] = input ligand: microRNA oligo, concentration not stated

Row | Sequence | apparent KD of MS2 coat protein [1] | apparent KD of MS2 coat protein [2] | apparent KD of MS2 coat protein [3] | apparent KD of MS2 coat protein (input ligand: FMN 200 uM) | apparent KD of MS2 coat protein (input ligand: none) | apparent KD of MS2 coat protein [4]
1 | GAUUAUGCGAGCUUUAGGGACAUGAGGAUCACCCAUGUUCGUCUUGUUGAUCUAGGUGCACUAACAUACCUAAAUCU [JMF 33] (puzzle: Sensor v3, turn-off variant 1) | 24.7 nM | 28.7 nM | 22.6 nM | – | – | –
2 | CCGCAAAUGCAGGAUAUCGUAUCGGAAACGAUACGAGAAGGGUAAACAUGAGGAUCACCCAUGUUCCUUAACGG [Mat - Exclusion 6 - Eli Mod - D98] (puzzle: Exclusion 6) | – | 16.3 nM | – | – | – | –
3 | GAACCAAAAGGAUAUGGCGUAACAAACAUGAGGAUCACCCAUGUCCUCGAUGAAUAUCCGCCAGAAGGUUUGUCUC [Eternabot (L2) Solution 10] (Eterna round: R97, puzzle: Exclusion 5) | – | – | – | 1000 nM | 1760 nM | –
4 | CUGUGCACGCUGCGGUCCUACAUGAGGAUCACCCAUGUGGUCUGGUGGCGUGGGUCACCGGACUUGGCUCGUCUUGC [salish99_S_TOV1_R5_062] (Eterna round: R97, puzzle: Sensor, turn-off variant 1) | – | – | – | 22.9 nM | 22.5 nM | –
5 | ACUAGAUGAGGAUAUGCAUAUUUUCGUGUUCUUCUAGAUUAACAUGAGGAUCACCCAUGUAGAAGGCGUCUGGA [Exclusion 2 - 18] (puzzle: Exclusion 2) | – | 17.6 nM | – | – | – | –
6 | AUUGUUUAUGUAGGAUAUGCCUGGCGUGCCUUCGCAGAAGGACAUGAGGAUCACCCAUGUAUUGCGGUCUGCGUUCAGAUCGCC [salish99_ExNG1_r4_027] (Eterna round: R96, puzzle: Exclusion NG 1) | – | – | – | 21.3 nM | 19.3 nM | 15 nM
7 | UUUCUGUGAGGAUAUCAGUAGUAAAUAAAUAAAAUUACUACUGAGAAGGCACAUGAGGAUCACCCAUGUUCCUU [salish99_ex3_r3_093] (Eterna round: R96, puzzle: Exclusion 4) | – | – | – | 35.1 nM | 16.5 nM | 12.9 nM
8 | UGAUUGUUUACCAGGUUAUACAUGAGGAUCACCCAUGUAGAUCCUACGUGCGCGUUGUUCCGCUCGUCUUAUUGCCA [Sensor-V1 #80] (Eterna round: R97, puzzle: Sensor, turn-off variant 1) | – | – | – | 22.6 nM | 24.8 nM | –
9 | GGAAAGUGAGGAUAUGGUAAAGUAAGUAUGUAGUAAGUAAUCCAGAAGGCACAUGAGGAUCACCCAUGUAAAGG [Mat - Exclusion 4 - D101] (puzzle: Exclusion 4) | 24.8 nM | 25.4 nM | 26.8 nM | – | – | –
10 | AAUUAUUUUUGAGGAUAUCGUGGUGAAACACCACGAGAAGGCGAGAUACACAUGAGGAUCACCCAUGUGAGCCUGAUGCUUAUG [Ex NG1 #51] (Eterna round: R96, puzzle: Exclusion NG 1) | – | – | – | – | – | 11.5 nM
11 | AAUCUACAUGUAGGAUAUGCGUGGCAAAGCUAUGCAGAAGGACAUGAGGAUCACCCAUGUUUUAGCGUCUGCGUACAGAUGCGA [Mat - Exclusion NG 1 - Mod of JL - D100] (Eterna round: R96, puzzle: Exclusion NG 1) | – | – | – | 147 nM | 27.9 nM | 18.4 nM
12 | UUUAAACAUGAGGAUCACCCAUGUUAGGAUAUACGAAUGCAGACACACACGGAUGCAAGUAGAAGGAACCAUGC [Design #8] (Eterna round: R97, puzzle: Exclusion 1) | – | – | – | 44.1 nM | 44.1 nM | –
13 | AUAAAUCAUGUAGGAUAUGCGUGGCGAAGCUAUGCAGAAGGACAUGAGGAUCACCCAUGUGCUUGCGUCCGCGUACGGAUGCAA [Mat - Exclusion NG 1 - Mod of JL - D69] (Eterna round: R96, puzzle: Exclusion NG 1) | – | – | – | 65.2 nM | 231 nM | 155 nM
14 | UUAGUGUUAGGAUAUCCGGCUCCAAGGCACCAAAACCGGGCGGAGAAGGAACAUGAGGAUCACCCAUGUGACCA [Eternabot (Original) Solution 31] (Eterna round: R97, puzzle: Exclusion 4) | – | – | – | 53.7 nM | 49.1 nM | –
15 | AUAAUUUAAGUGAGGAUAUACCUAUGGAAACAUAGGUAGAAGGCACAUGAGGAUCACCCAUGUUCCUAUACAUA [Fiskers BMX 4 - 3] (puzzle: Brourd's mod of Exclusion 4) | 22.8 nM | 12 nM | 13.1 nM | – | – | –
16 | AAGAAACAUGAGGAUCACCCAUGUGAGGAUAUGAAAAAGAAAAGAAAAGAAAGAAGAAUCAGAAGGCACAAAGU [salish99-ex1_r3_089] (puzzle: Exclusion 1) | 26.5 nM | 25.9 nM | 32.6 nM | – | – | –
17 | GUAAAGGUAGGAUAUACGAAGAAAAAGGGUAGAAGAAAAACACAUGAGGAUCACCCAUGUAGAAGGACCAAAUG [Mat - Exclusion 2 - Mod of my Tesla design - D3] (puzzle: Exclusion 2) | 77.6 nM | 28.6 nM | 34 nM | – | – | –
18 | AACGCGUGAGGAUAUUGAGGUCUAAAAUGGUAACAUGACCACGAGAAGGCACAUGAGGAUCACCCAUGUUCCCG [Eternabot (L2) Solution 49] (Eterna round: R97, puzzle: Exclusion 4) | – | – | – | 85.1 nM | 17.8 nM | –
19 | UAAUGUAUAUAGGAUAUCUAGCUGGUAACAGCUAGAGAAGGAUGUACAUGAGGAUCACCCAUGUAAAUCGAUCA [Ex6/11-A2] (Eterna round: R97, puzzle: Exclusion 6) | – | – | – | 83.3 nM | 24.4 nM | –
20 | CGGAACCAGACAGGAUAUACCUGUCCGAGACAGACACACAUGAGGAUCACCCAUGUUGAUGUCAGGUAGAAGGGUCAUAAAGAC [Eternabot solution 7] (Eterna round: R96, puzzle: Exclusion NG 2) | – | – | – | 9.86 nM | 11.5 nM | 10.3 nM
21 | UACGAAUUAGGAUAUGCAAUGGGCUCGCUUUCCUUCGAUAAACUUGAGGAUCACCCAAGUAGAAGGAAUUUGUA [Mod 37 - Jieux - Exclusion 2] (Eterna round: R97, puzzle: Exclusion 2) | – | – | – | 14.8 nM | 12.9 nM | –
22 | UGAUCUUUUGUUAGGAUAUGCUGGGUUUUUUCUCAGCAGAAGGGACAUGAGGAUCACCCAUGUUCUCUCUUUUU [Magic-08] (puzzle: Brourd's mod of Exclusion 4) | – | 9.72 nM | – | – | – | –
23 | AAAGAGCGAGGAUAUACAUGAGGAUCACCCAUGUAAAGAUGCAUGGUCUGAACGUCUGGUAGAAGGCGUAUGAA [Diatater] (puzzle: Exclusion 3) | – | 98.7 nM | – | – | – | –
24 | GUAAACCGGUGAGGAUAUUUAUAAUAGAGCUUUAUGAUAUACAUGAGGAUCACCCAUGUUACUUUAAAGAAGGCAUCGGAAAUG [Mat - Exclusion NG 2 - Mod of JL - D95] (Eterna round: R96, puzzle: Exclusion NG 2) | – | – | – | – | – | 15.5 nM
25 | CCGAAUAUGUAGGAUAUCGUAUCGGAAACGAUACGAGAAGGGCAAACAUGAGGAUCACCCAUGUUCCUUAACGG [Fiskers Ex 6 - 13] (puzzle: Exclusion 6) | 16.3 nM | 15.1 nM | 14.2 nM | – | – | –
